These results are taken from US20210171647A1 (WUXI BIOLOGICS SHANGHAI, published 2021).

The target of assay [1] is T1, human OX40 extracellular domain (ECD) protein (human, UniProt P43489 29-214).
T1 construct: extracellular domain; also called human OX40 ECD; human OX40 protein; not shown: human Fc or His tag
T1 sequence (looked up): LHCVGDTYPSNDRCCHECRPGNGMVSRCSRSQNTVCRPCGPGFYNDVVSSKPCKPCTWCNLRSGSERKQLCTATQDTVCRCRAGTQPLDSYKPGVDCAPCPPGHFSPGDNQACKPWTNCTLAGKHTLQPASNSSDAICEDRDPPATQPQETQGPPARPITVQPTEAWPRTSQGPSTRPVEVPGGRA
Description: SPR, Biacore T200, antibody captured, OX40 as analyte. In general terms: Surface plasmon resonance follows binding to a sensor surface in real time, without labels.

In assay [2] the target is T2, human OX40, full-length, on cells (human, UniProt P43489 29-277).
T2 construct: whole, on cells; also called hPro1; cell surface human OX40
T2 sequence (looked up): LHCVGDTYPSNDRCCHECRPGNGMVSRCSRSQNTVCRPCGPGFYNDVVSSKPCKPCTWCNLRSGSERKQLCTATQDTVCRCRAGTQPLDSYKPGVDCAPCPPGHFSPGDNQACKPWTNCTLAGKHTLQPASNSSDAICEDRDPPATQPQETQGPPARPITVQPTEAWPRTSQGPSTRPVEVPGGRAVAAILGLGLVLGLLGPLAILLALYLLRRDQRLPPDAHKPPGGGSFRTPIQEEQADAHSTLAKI
Description: flow cytometry on human OX40 transfected CHO-K1 cells. (In flow cytometry, cells or beads pass a laser one at a time.)
Description: (§1) CHO-K 1 cells expressing human OX40 were transferred in to 96-well U-bottom plates (Corning) at a density of 5×10⁴ cells/mL. Testing antibodies were 1:2 serially diluted in wash buffer (1×PBS/1% BSA) and incubated with cells at 4° C. for 1 h. The secondary antibody goat anti-human IgG Fc FITC (3.2 moles FITC per mole IgG, Jackson Immunoresearch Lab) was added and incubated with cells at 4° C. in the dark for half an hour. The cells were then washed once, resuspended in 1×PBS/1% BSA and analyzed by flow cytometry (BD). Fluorescence intensity was converted to bound molecules/cell based on the quantitative beads Quantum™ MESF Kits (Bangs Laboratories, Inc.). The KD value of each antibody was calculated using Graphpad Prism5.

Assay [3] has as its target T2, human OX40, full-length, on cells. Description: flow cytometry, CHO-K1 cells expressing human OX40, MESF beads.
Description: as §1
In a further assay the target is T3, human OX40-ECD.His H153A (human, UniProt P43489 29-214).
T3 construct: extracellular domain; not shown: C-terminal His-tag
T3 sequence (looked up): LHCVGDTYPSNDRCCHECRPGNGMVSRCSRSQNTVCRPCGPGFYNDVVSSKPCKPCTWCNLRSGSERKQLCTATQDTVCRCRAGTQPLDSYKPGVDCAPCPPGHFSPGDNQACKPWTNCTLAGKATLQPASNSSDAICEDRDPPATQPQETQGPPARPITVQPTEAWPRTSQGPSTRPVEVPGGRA
Nature of the assay: ELISA, antibody coated, OX40-ECD.His mutant supernatant; relative to silent alanine substitutions.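 Note: captured OX40 mutant protein detected with HRP-labelled anti-His antibody, absorbance read-out, scaled to the mean signal of control mutants.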 A general note: ELISA stands for enzyme-linked immunosorbent assay.

A further assay concerns the target T4, human OX40-ECD.His S78A (human, UniProt P43489 29-214).
T4 construct: extracellular domain; not shown: C-terminal His-tag
T4 sequence (looked up): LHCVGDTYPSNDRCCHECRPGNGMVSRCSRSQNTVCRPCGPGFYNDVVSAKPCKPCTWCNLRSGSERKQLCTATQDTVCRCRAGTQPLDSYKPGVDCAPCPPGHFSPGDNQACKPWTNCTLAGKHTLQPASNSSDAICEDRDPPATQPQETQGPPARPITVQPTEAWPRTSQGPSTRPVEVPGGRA
The assay is described as above.

For the next assay, the target named is T5, human OX40-ECD.His P37A (human, UniProt P43489 29-214).
T5 construct: extracellular domain; not shown: C-terminal His-tag
T5 sequence (looked up): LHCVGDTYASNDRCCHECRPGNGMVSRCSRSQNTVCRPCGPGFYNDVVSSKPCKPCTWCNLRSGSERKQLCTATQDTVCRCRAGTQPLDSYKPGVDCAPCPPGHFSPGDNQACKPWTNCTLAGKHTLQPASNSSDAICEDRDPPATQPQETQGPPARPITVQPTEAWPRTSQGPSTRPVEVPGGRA
The description is as above.

A further assay has as its target T6, human OX40-ECD.His E94A (human, UniProt P43489 29-214).
T6 construct: extracellular domain; not shown: C-terminal His-tag
T6 sequence (looked up): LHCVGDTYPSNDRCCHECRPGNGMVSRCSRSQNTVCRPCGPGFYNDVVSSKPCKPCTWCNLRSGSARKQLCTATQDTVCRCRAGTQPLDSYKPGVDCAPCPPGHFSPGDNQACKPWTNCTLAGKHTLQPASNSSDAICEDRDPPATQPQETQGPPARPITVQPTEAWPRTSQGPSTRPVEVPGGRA
The assay is described as above.

For a further assay, the target named is T7, human OX40-ECD.His Q114A (human, UniProt P43489 29-214).
T7 construct: extracellular domain; not shown: C-terminal His-tag
T7 sequence (looked up): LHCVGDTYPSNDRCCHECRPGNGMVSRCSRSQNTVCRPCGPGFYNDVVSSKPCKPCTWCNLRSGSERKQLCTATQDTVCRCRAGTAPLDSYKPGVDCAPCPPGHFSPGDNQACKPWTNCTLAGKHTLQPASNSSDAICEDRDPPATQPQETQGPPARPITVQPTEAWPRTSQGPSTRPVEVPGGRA
Described as above.

For another assay, the target named is T8, human OX40-ECD.His T85A (human, UniProt P43489 29-214).
T8 construct: extracellular domain; not shown: C-terminal His-tag
T8 sequence (looked up): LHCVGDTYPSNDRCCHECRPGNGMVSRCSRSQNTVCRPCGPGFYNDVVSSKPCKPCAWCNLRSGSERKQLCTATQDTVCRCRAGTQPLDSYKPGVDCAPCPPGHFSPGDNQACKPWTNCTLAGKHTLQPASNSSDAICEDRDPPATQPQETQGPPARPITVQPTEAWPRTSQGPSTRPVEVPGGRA
Described as above.

The next assay deals with T9, human OX40-ECD.His K82A (human, UniProt P43489 29-214).
T9 construct: extracellular domain; not shown: C-terminal His-tag
T9 sequence (looked up): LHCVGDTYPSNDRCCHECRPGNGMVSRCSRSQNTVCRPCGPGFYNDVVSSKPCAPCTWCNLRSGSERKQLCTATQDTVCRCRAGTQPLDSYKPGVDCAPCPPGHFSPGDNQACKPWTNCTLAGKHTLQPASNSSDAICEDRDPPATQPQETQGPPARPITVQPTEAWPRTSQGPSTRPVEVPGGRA
The description is as above.

A further assay addresses T10, human OX40-ECD.His R110A (human, UniProt P43489 29-214).
T10 construct: extracellular domain; not shown: C-terminal His-tag
T10 sequence (looked up): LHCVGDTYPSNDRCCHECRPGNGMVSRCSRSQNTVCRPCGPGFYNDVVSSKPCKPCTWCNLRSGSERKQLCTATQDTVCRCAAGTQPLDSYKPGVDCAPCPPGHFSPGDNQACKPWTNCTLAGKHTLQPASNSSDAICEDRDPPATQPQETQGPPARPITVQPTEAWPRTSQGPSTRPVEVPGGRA
Described as above.

Description for human OX40-ECD.His E94A: (§2) After interacting with the supernatant that contains quantified OX40 mutants or human OX40-ECD.His protein, HRP conjugated anti-His antibody (1:5000, GenScript-A00612, CHN) was added as detection antibody. Absorbance was normalized according to the average of control mutants.
Description for human OX40-ECD.His H153A: as §2
Description for human OX40-ECD.His K82A: as §2
Description for human OX40-ECD.His P37A: as §2
Description for human OX40-ECD.His Q114A: as §2
Description for human OX40-ECD.His R110A: as §2
Description for human OX40-ECD.His S78A: as §2
Description for human OX40-ECD.His T85A: as §2

B1: 1.134.9-u1-IgG1L (antibody, V domains shown)
VH: QVQLQESGPGLVKPSGTLSLTCAVSGGSISSYNWWSWVRQPPGKGLEWIGEIYHGGNTNYNPSLKSRVTMSVDNSKNQFSLKLSSVTAADTAVYYCARAPGDWGGSPYFDFWGQGTLVTVSS
VL: SSELTQDPAVSVALGQTVRITCQGDNLRTYYASWYQQKPGQAPILLIYGRNKRPSGIPDRFSGSSSGNTASLTITGAQAEDEAAYYCNSRDSSGNPVVFGGGTKLTVL
notes: fully human IgG1, lambda
What is called Kd is the free concentration of one partner at which half of the binding sites on the other are occupied at equilibrium, for simple one-to-one binding. Low values mean a tighter complex, high ones a looser complex. In general, koff refers to the first-order rate constant of dissociation. A higher koff goes with a short-lived complex. For orientation: kon means the second-order rate constant of association. Read a high kon as faster complex formation. In general, EC50 (read off the curve) refers to the concentration that produces a half-maximal response. A low value points to an effect from little substance. For B1, the dissociation constant (Kd) in assay [1] came to 0.179 nM; in [3], 0.53 nM. For the same molecule, in assay [1], the koff came to 3.7e-05 s⁻¹. The molecule also came in with a kon in [1] of 207000 M⁻¹ s⁻¹. For the same molecule, in [2], the “EC50 (read off the curve)” value is around 1 nM. Also, the “Fold Change” value worked out at 0.997 in the assay with human OX40-ECD.His H153A; 1 with human OX40-ECD.His S78A; 1.01 with human OX40-ECD.His P37A; 0.716 with human OX40-ECD.His E94A; 0.79 with human OX40-ECD.His Q114A; 0.808 with human OX40-ECD.His T85A. The entries for the “Fold Change” value in the assay with human OX40-ECD.His K82A and with human OX40-ECD.His R110A were 0.894 and 0.955, respectively.
